# Experimental data: patent US20200270310A1, “MAFG AS A POTENTIAL THERAPEUTIC TARGET TO RESTORE CHEMOSENSITIVITY IN PLATINUM-RESISTANT CANCER CELLS” (FUNDACÓIN PARA LA INVESTIGACIÓN BIOMÉDICA DEL HOSPITAL …, priority 2017, published 2020)
# B1: GCGGATGAAGACTGGTGTCGATGCATGTGTAGTGCATTTCGAGCCGTTCTATTGGTGTGCCCTAAATACGAGCAAC (nucleic acid)
# chain: GCGGATGAAGACTGGTGTCGATGCATGTGTAGTGCATTTCGAGCCGTTCTATTGGTGTGCCCTAAATACGAGCAAC
# modifications: chemistry not given here
# notes: DNA aptamer selected against the MAFG protein by SELEX
# How the values were obtained:
# [1] = system: H23R cells; assay: ROS production after CDDP exposure, resistant cells; format: cell-based, human
# Method: FIG. 2. Viability assays and Reactive Oxygenated Species detection after CDDP treatment in H23 cell lines. (A) Viability to CDDP in H23S (left) and H23R (right) at 24, 48 and 72 hours and 6 concentrations of CDDP measured by MTT assay. (B) Increment of ROS production in H23S (left) and H23R (right) after 24, 48 and 72 hours of CDDP treatment. $: 72h (vs Basal).
# (§1) H23/A2780 cells were cultured in 96-well black plates at density of 10,000 cells/well. Cells were treated with 6 different doses of CDDP for 24, 48 and 72 h in RPMI containing 10% FBS. Then treatments were removed and cells were loaded with the fluorescent probe 2′,7′-dichlorodihydrofluorescein diacetate (H2DCFDA) (10 μM) for 45 minutes in RPMI medium (FBS free). Cells were washed twice with RPMI (10% FBS), and fluorescence was recorded in a Fluostar Optima, each hour, over 4 hours period. […] ROS production was calculated dividing the mean H2DCFDA fluorescence by the mean viability. […] All experiments included cells treated with RPMI alone (Basal), and one well without cells as fluorescence basal.
# (§2) H23/A2780 cells were cultured in 96-well black plates at density of 10,000 cells/well. […] Cells were washed twice with RPMI (10% FBS), and fluorescence was recorded in a Fluostar Optima at 520 nm after excitation at 485 nm. […] ROS production was calculated dividing the mean H2DCFDA fluorescence by the mean viability. […]
# [2] = system: A2780 ovarian cancer cells; assay: ROS production after CDDP exposure, ovarian cells; format: cell-based, human
# Method: FIG. 3. Viability assays and Reactive Oxygenated Species detection after CDDP treatment in A2780 cell lines. (A) Viability to CDDP in A2780S (left) and A2780R (right) at 24, 48 and 72 hours and 6 concentrations of CDDP measured by MTT assay. (B) Increment of ROS production in A2780S (left) and A2780R (right) after 24, 48 and 72 hours of CDDP treatment. $: 72h (vs Basal).
# as §1, §2
# [3] = system: NRF2; assay: Semiquantitative RT-PCR expression after cisplatin treatment; format: cell-based, human
# Method: (§3) For semiquantitative RT-PCR, 500 ng of total RNA isolated from cell lines was used for RT reaction using PrimeScript™ RT Master (Clontech-Takara, USA) and subsequent semiquantitative PCR using Promega PCR Mix (Promega, USA) as previously described. Relative quantification was performed by measuring the intensity of band amplified using ImageJ software. Primers for HMOX1 (F: 5′-[…]-3′; R: 5′-[…]-3′), MAFG (F: 5′-[…]-3′; R: 5′-[…]-3′) and GAPDH (F: 5′-GAGAGACCCTCACTGCTG-3′; R: 5′-[…]-3′) were designed to include the probe from the array in order to assure the correct transcript identification.
# [4] = system: H1299 cells; assay: Expression of MAFG and HMOX1 in cells carrying the aptamer; format: cell-based, human; details: cells carrying apMAFG6F
# Method: as §3
# [5] = system: H23S cells overexpressing MAFG; assay: CDDP sensitivity of MAFG-overexpressing cells combined with aptamer; format: cell-based, human
# Method: HEK293 and H23S/R cells were seeded into 96-well plates then transfected with 5, 12.5, 25, 75 and 100 nM of MAFG aptamers or treated with PBS-Mg using Jet Pei PolyPlus transfection reagent (PolyPlus Transfection, USA). The dose of 25 nM aptamer was afterwards used in combination with increased doses of CDDP to assay viability and ROS production as described above. To confirm the aptamer-transfection efficiency cells were seeded in 24-well plates for aptamer isolation and confirmation of aptamer transfection by quantitative analysis. A Myc-DDK-tagged ORF clone of MAFG the negative control pCMV6 were used for in transient transfection (OriGene, USA) in combination with MAFG-aptamers following the same procedure.
# [6] = system: human MAFG peptides M1-M10; assay: ELONA of aptamers with 10 MAFG peptides; format: binding; details: digoxigenin aptamer 20 nM, 1 μg peptide, absorbance at 405 nm
# Method: FIG. 9. Characterization of the interaction of aptamers with MAFG. ELONAS in which the Aptamers bound to digoxigenin (20 nM) were incubated 1 hour at 37° C. with 10 peptides (1 μg) previously attached to the plate overnight. After incubating 1 hour with antidigoxigenin-Peroxidase 1/1000, ABTS was added and at 10 minutes the absorbance at 405 nm was measured.
# In order to identify compounds of the invention and starting from the amino acidic sequence of human MAFG (NCBI Reference Sequence: NP_116100.2) of: SEQ ID NO 2: […]); we designed the following 10 peptides (please refer to table below):
# Peptide M4, amino acids 49-68 corresponds to the basic MAFG region containing the tyrosine residue (Tyr64), as well as the arginine residue (Arg57) required for binding to the DNA, in addition to a nuclear localization signal.
# [7] = molecular target: T1, MAFG in H23S and H23R cells (Homo sapiens, UniProt O15525); assay: Aptacytochemistry with digoxigenin-labeled individual aptamers; format: cell-based
# T1 construct: endogenous in cells; host or cells: H23S and H23R (NSCLC cells, fixed)
# Method: Following the methodology described above, H23R cells were incubated with 6 pmol of digoxigenin-labeled aptamers (IBA Life Sciences) in selection buffer for 1 hour at room temperature. Subsequently, cells were washed three times with PBS and incubated with anti-digoxigenin conjugated with 5′ AlexaFluor 488 (R&D systems, USA) at 1/500 dilution in blocking buffer for 1 hour at room temperature, as secondary antibody. Finally, the cells were mounted on glass slides using glycerol-buffer containing p-phenylenediamine and 1/750 dilution of Dapi for nuclear staining. Controls were made by omitting the aptamer. Colocalization was assessed by confocal microcopy as described in (iii).
Molecule,ROS production versus basal untreated cells ([1]; 3.00 μg/ml CDDP),ROS after treatment with the drug ([1]; Example 1),differences in ROS production between sensitive and resistant cells [2],NRF2 expression after cisplatin treatment [3],HMOX1 expression [4],MAFG expression [4],CDDP sensitivity of MAFG-overexpressing cells with aptamer [5],interaction of aptamers with the 10 MAFG peptides by ELONA [6],cellular localization of the aptamer [7],"number of dots per nucleus, H23R versus H23S [7]"
"[NH2][Pt]([NH2])([Cl])[Cl] [CDDP, Cisplatin]",159%,no changes,confirmed,did not changed,–,–,–,–,–,–
B1,–,–,–,–,decrease,decrease,rescued the phenotype and re-sensitized the cells,recognized peptide M4,preferentially located at the nuclei,remarkable differences
